Target: T1, FcγRIa (human, UniProt P12314 16-292)
T1 construct: extracellular domain; soluble extracellular domain with C-terminal His tag, expressed in FreeStyle293 cells; also called FcgRI; FcgRIa
Assay: SPR (Biacore), captured antibody, FcγRIa analyte; relative to HeCon Ab GpH7-A5/GpH7-B3/GpL16-k0 = 100

T1 sequence (P12314 16-292): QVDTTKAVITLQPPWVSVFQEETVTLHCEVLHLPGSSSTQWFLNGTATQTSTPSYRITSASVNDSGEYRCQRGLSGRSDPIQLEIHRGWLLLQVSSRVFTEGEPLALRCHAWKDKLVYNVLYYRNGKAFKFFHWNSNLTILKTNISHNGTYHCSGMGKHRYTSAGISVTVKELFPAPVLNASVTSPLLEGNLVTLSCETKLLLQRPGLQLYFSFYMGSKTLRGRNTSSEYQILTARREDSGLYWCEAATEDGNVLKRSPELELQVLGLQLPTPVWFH

Binder | He/Con_1a
GpH7-A5/GpH7-B3 variant I336_10E/GpL16-k0 (antibody, human IgG1, kappa, heterodimerized IgG1, mutation in one H chain; also called He Ab) heavy 1: not shown heavy 2: not shown light: DIVMTQSPLSLPVTPGEPASISCQASESLVHSNRNTYLHWYLQKPGQSPQLLIYKVSNRFSGVPDRFSGSGSGTDFTLKISRVEAEDVGVYYCSQNTHVPPTFGQGTKVEIERTVAAPSVFIFPPSDEQLKSGTASVVCLLNNFYPREAKVQWKVDNALQSGNSQESVTEQDSKDSTYSLSSTLTLSKADYEKHKVYACEVTHQGLSSPVTKSFNRGEC | 108 % of control
GpH7-A5/GpH7-B3 variant Q295_18N/GpL16-k0 (antibody, human IgG1, kappa, heterodimerized IgG1, mutation in one H chain; also called He Ab) heavy 1: not shown heavy 2: not shown light: DIVMTQSPLSLPVTPGEPASISCQASESLVHSNRNTYLHWYLQKPGQSPQLLIYKVSNRFSGVPDRFSGSGSGTDFTLKISRVEAEDVGVYYCSQNTHVPPTFGQGTKVEIERTVAAPSVFIFPPSDEQLKSGTASVVCLLNNFYPREAKVQWKVDNALQSGNSQESVTEQDSKDSTYSLSSTLTLSKADYEKHKVYACEVTHQGLSSPVTKSFNRGEC | 102 % of control
GpH7-A5/GpH7-B3 variant P271_13S/GpL16-k0 (antibody, human IgG1, kappa, heterodimerized IgG1, mutation in one H chain; also called He Ab) heavy 1: not shown heavy 2: not shown light: DIVMTQSPLSLPVTPGEPASISCQASESLVHSNRNTYLHWYLQKPGQSPQLLIYKVSNRFSGVPDRFSGSGSGTDFTLKISRVEAEDVGVYYCSQNTHVPPTFGQGTKVEIERTVAAPSVFIFPPSDEQLKSGTASVVCLLNNFYPREAKVQWKVDNALQSGNSQESVTEQDSKDSTYSLSSTLTLSKADYEKHKVYACEVTHQGLSSPVTKSFNRGEC | 102 % of control
GpH7-A5/GpH7-B3 variant Q295_05P/GpL16-k0 (antibody, human IgG1, kappa, heterodimerized IgG1, mutation in one H chain; also called He Ab) heavy 1: not shown heavy 2: not shown light: DIVMTQSPLSLPVTPGEPASISCQASESLVHSNRNTYLHWYLQKPGQSPQLLIYKVSNRFSGVPDRFSGSGSGTDFTLKISRVEAEDVGVYYCSQNTHVPPTFGQGTKVEIERTVAAPSVFIFPPSDEQLKSGTASVVCLLNNFYPREAKVQWKVDNALQSGNSQESVTEQDSKDSTYSLSSTLTLSKADYEKHKVYACEVTHQGLSSPVTKSFNRGEC | 103 % of control
GpH7-A5/GpH7-B3 variant P271_11K/GpL16-k0 (antibody, human IgG1, kappa, heterodimerized IgG1, mutation in one H chain; also called He Ab) heavy 1: not shown heavy 2: not shown light: DIVMTQSPLSLPVTPGEPASISCQASESLVHSNRNTYLHWYLQKPGQSPQLLIYKVSNRFSGVPDRFSGSGSGTDFTLKISRVEAEDVGVYYCSQNTHVPPTFGQGTKVEIERTVAAPSVFIFPPSDEQLKSGTASVVCLLNNFYPREAKVQWKVDNALQSGNSQESVTEQDSKDSTYSLSSTLTLSKADYEKHKVYACEVTHQGLSSPVTKSFNRGEC | 103 % of control
GpH7-A5/GpH7-B3 variant P271_03V/GpL16-k0 (antibody, human IgG1, kappa, heterodimerized IgG1, mutation in one H chain; also called He Ab) heavy 1: not shown heavy 2: not shown light: DIVMTQSPLSLPVTPGEPASISCQASESLVHSNRNTYLHWYLQKPGQSPQLLIYKVSNRFSGVPDRFSGSGSGTDFTLKISRVEAEDVGVYYCSQNTHVPPTFGQGTKVEIERTVAAPSVFIFPPSDEQLKSGTASVVCLLNNFYPREAKVQWKVDNALQSGNSQESVTEQDSKDSTYSLSSTLTLSKADYEKHKVYACEVTHQGLSSPVTKSFNRGEC | 102 % of control
GpH7-A5/GpH7-B3 variant Q295_04F/GpL16-k0 (antibody, human IgG1, kappa, heterodimerized IgG1, mutation in one H chain; also called He Ab) heavy 1: not shown heavy 2: not shown light: DIVMTQSPLSLPVTPGEPASISCQASESLVHSNRNTYLHWYLQKPGQSPQLLIYKVSNRFSGVPDRFSGSGSGTDFTLKISRVEAEDVGVYYCSQNTHVPPTFGQGTKVEIERTVAAPSVFIFPPSDEQLKSGTASVVCLLNNFYPREAKVQWKVDNALQSGNSQESVTEQDSKDSTYSLSSTLTLSKADYEKHKVYACEVTHQGLSSPVTKSFNRGEC | 102 % of control
GpH7-A5/GpH7-B3 variant P271_06M/GpL16-k0 (antibody, human IgG1, kappa, heterodimerized IgG1, mutation in one H chain; also called He Ab) heavy 1: not shown heavy 2: not shown light: DIVMTQSPLSLPVTPGEPASISCQASESLVHSNRNTYLHWYLQKPGQSPQLLIYKVSNRFSGVPDRFSGSGSGTDFTLKISRVEAEDVGVYYCSQNTHVPPTFGQGTKVEIERTVAAPSVFIFPPSDEQLKSGTASVVCLLNNFYPREAKVQWKVDNALQSGNSQESVTEQDSKDSTYSLSSTLTLSKADYEKHKVYACEVTHQGLSSPVTKSFNRGEC | 102 % of control
GpH7-A5/GpH7-B3 variant Q295_03V/GpL16-k0 (antibody, human IgG1, kappa, heterodimerized IgG1, mutation in one H chain; also called He Ab) heavy 1: not shown heavy 2: not shown light: DIVMTQSPLSLPVTPGEPASISCQASESLVHSNRNTYLHWYLQKPGQSPQLLIYKVSNRFSGVPDRFSGSGSGTDFTLKISRVEAEDVGVYYCSQNTHVPPTFGQGTKVEIERTVAAPSVFIFPPSDEQLKSGTASVVCLLNNFYPREAKVQWKVDNALQSGNSQESVTEQDSKDSTYSLSSTLTLSKADYEKHKVYACEVTHQGLSSPVTKSFNRGEC | 104 % of control
GpH7-A5/GpH7-B3 variant P271_12R/GpL16-k0 (antibody, human IgG1, kappa, heterodimerized IgG1, mutation in one H chain; also called He Ab) heavy 1: not shown heavy 2: not shown light: DIVMTQSPLSLPVTPGEPASISCQASESLVHSNRNTYLHWYLQKPGQSPQLLIYKVSNRFSGVPDRFSGSGSGTDFTLKISRVEAEDVGVYYCSQNTHVPPTFGQGTKVEIERTVAAPSVFIFPPSDEQLKSGTASVVCLLNNFYPREAKVQWKVDNALQSGNSQESVTEQDSKDSTYSLSSTLTLSKADYEKHKVYACEVTHQGLSSPVTKSFNRGEC | 102 % of control
GpH7-A5/GpH7-B3 variant Q295_07I/GpL16-k0 (antibody, human IgG1, kappa, heterodimerized IgG1, mutation in one H chain; also called He Ab) heavy 1: not shown heavy 2: not shown light: DIVMTQSPLSLPVTPGEPASISCQASESLVHSNRNTYLHWYLQKPGQSPQLLIYKVSNRFSGVPDRFSGSGSGTDFTLKISRVEAEDVGVYYCSQNTHVPPTFGQGTKVEIERTVAAPSVFIFPPSDEQLKSGTASVVCLLNNFYPREAKVQWKVDNALQSGNSQESVTEQDSKDSTYSLSSTLTLSKADYEKHKVYACEVTHQGLSSPVTKSFNRGEC | 103 % of control
GpH7-A5/GpH7-B3 variant Q295_02A/GpL16-k0 (antibody, human IgG1, kappa, heterodimerized IgG1, mutation in one H chain; also called He Ab) heavy 1: not shown heavy 2: not shown light: DIVMTQSPLSLPVTPGEPASISCQASESLVHSNRNTYLHWYLQKPGQSPQLLIYKVSNRFSGVPDRFSGSGSGTDFTLKISRVEAEDVGVYYCSQNTHVPPTFGQGTKVEIERTVAAPSVFIFPPSDEQLKSGTASVVCLLNNFYPREAKVQWKVDNALQSGNSQESVTEQDSKDSTYSLSSTLTLSKADYEKHKVYACEVTHQGLSSPVTKSFNRGEC | 104 % of control
GpH7-A5/GpH7-B3 variant P271_20W/GpL16-k0 (antibody, human IgG1, kappa, heterodimerized IgG1, mutation in one H chain; also called He Ab) heavy 1: not shown heavy 2: not shown light: DIVMTQSPLSLPVTPGEPASISCQASESLVHSNRNTYLHWYLQKPGQSPQLLIYKVSNRFSGVPDRFSGSGSGTDFTLKISRVEAEDVGVYYCSQNTHVPPTFGQGTKVEIERTVAAPSVFIFPPSDEQLKSGTASVVCLLNNFYPREAKVQWKVDNALQSGNSQESVTEQDSKDSTYSLSSTLTLSKADYEKHKVYACEVTHQGLSSPVTKSFNRGEC | 103 % of control

Next, values leading:

He/Con_1a | Binder
102 % of control | GpH7-A5/GpH7-B3 variant P271_04F/GpL16-k0 (antibody, human IgG1, kappa, heterodimerized IgG1, mutation in one H chain; also called He Ab) heavy 1: not shown heavy 2: not shown light: DIVMTQSPLSLPVTPGEPASISCQASESLVHSNRNTYLHWYLQKPGQSPQLLIYKVSNRFSGVPDRFSGSGSGTDFTLKISRVEAEDVGVYYCSQNTHVPPTFGQGTKVEIERTVAAPSVFIFPPSDEQLKSGTASVVCLLNNFYPREAKVQWKVDNALQSGNSQESVTEQDSKDSTYSLSSTLTLSKADYEKHKVYACEVTHQGLSSPVTKSFNRGEC
103 % of control | GpH7-A5/GpH7-B3 variant K326_16H/GpL16-k0 (antibody, human IgG1, kappa, heterodimerized IgG1, mutation in one H chain; also called He Ab) heavy 1: not shown heavy 2: not shown light: DIVMTQSPLSLPVTPGEPASISCQASESLVHSNRNTYLHWYLQKPGQSPQLLIYKVSNRFSGVPDRFSGSGSGTDFTLKISRVEAEDVGVYYCSQNTHVPPTFGQGTKVEIERTVAAPSVFIFPPSDEQLKSGTASVVCLLNNFYPREAKVQWKVDNALQSGNSQESVTEQDSKDSTYSLSSTLTLSKADYEKHKVYACEVTHQGLSSPVTKSFNRGEC
102 % of control | GpH7-A5/GpH7-B3 variant Q295_13S/GpL16-k0 (antibody, human IgG1, kappa, heterodimerized IgG1, mutation in one H chain; also called He Ab) heavy 1: not shown heavy 2: not shown light: DIVMTQSPLSLPVTPGEPASISCQASESLVHSNRNTYLHWYLQKPGQSPQLLIYKVSNRFSGVPDRFSGSGSGTDFTLKISRVEAEDVGVYYCSQNTHVPPTFGQGTKVEIERTVAAPSVFIFPPSDEQLKSGTASVVCLLNNFYPREAKVQWKVDNALQSGNSQESVTEQDSKDSTYSLSSTLTLSKADYEKHKVYACEVTHQGLSSPVTKSFNRGEC
110 % of control | GpH7-A5/GpH7-B3 variant K334_10E/GpL16-k0 (antibody, human IgG1, kappa, heterodimerized IgG1, mutation in one H chain; also called He Ab) heavy 1: not shown heavy 2: not shown light: DIVMTQSPLSLPVTPGEPASISCQASESLVHSNRNTYLHWYLQKPGQSPQLLIYKVSNRFSGVPDRFSGSGSGTDFTLKISRVEAEDVGVYYCSQNTHVPPTFGQGTKVEIERTVAAPSVFIFPPSDEQLKSGTASVVCLLNNFYPREAKVQWKVDNALQSGNSQESVTEQDSKDSTYSLSSTLTLSKADYEKHKVYACEVTHQGLSSPVTKSFNRGEC
102 % of control | GpH7-A5/GpH7-B3 variant P271_07I/GpL16-k0 (antibody, human IgG1, kappa, heterodimerized IgG1, mutation in one H chain; also called He Ab) heavy 1: not shown heavy 2: not shown light: DIVMTQSPLSLPVTPGEPASISCQASESLVHSNRNTYLHWYLQKPGQSPQLLIYKVSNRFSGVPDRFSGSGSGTDFTLKISRVEAEDVGVYYCSQNTHVPPTFGQGTKVEIERTVAAPSVFIFPPSDEQLKSGTASVVCLLNNFYPREAKVQWKVDNALQSGNSQESVTEQDSKDSTYSLSSTLTLSKADYEKHKVYACEVTHQGLSSPVTKSFNRGEC
104 % of control | GpH7-A5/GpH7-B3 variant K326_14T/GpL16-k0 (antibody, human IgG1, kappa, heterodimerized IgG1, mutation in one H chain; also called He Ab) heavy 1: not shown heavy 2: not shown light: DIVMTQSPLSLPVTPGEPASISCQASESLVHSNRNTYLHWYLQKPGQSPQLLIYKVSNRFSGVPDRFSGSGSGTDFTLKISRVEAEDVGVYYCSQNTHVPPTFGQGTKVEIERTVAAPSVFIFPPSDEQLKSGTASVVCLLNNFYPREAKVQWKVDNALQSGNSQESVTEQDSKDSTYSLSSTLTLSKADYEKHKVYACEVTHQGLSSPVTKSFNRGEC
108 % of control | GpH7-A5/GpH7-B3 variant I336_18N/GpL16-k0 (antibody, human IgG1, kappa, heterodimerized IgG1, mutation in one H chain; also called He Ab) heavy 1: not shown heavy 2: not shown light: DIVMTQSPLSLPVTPGEPASISCQASESLVHSNRNTYLHWYLQKPGQSPQLLIYKVSNRFSGVPDRFSGSGSGTDFTLKISRVEAEDVGVYYCSQNTHVPPTFGQGTKVEIERTVAAPSVFIFPPSDEQLKSGTASVVCLLNNFYPREAKVQWKVDNALQSGNSQESVTEQDSKDSTYSLSSTLTLSKADYEKHKVYACEVTHQGLSSPVTKSFNRGEC
103 % of control | GpH7-A5/GpH7-B3 variant Q295_14T/GpL16-k0 (antibody, human IgG1, kappa, heterodimerized IgG1, mutation in one H chain; also called He Ab) heavy 1: not shown heavy 2: not shown light: DIVMTQSPLSLPVTPGEPASISCQASESLVHSNRNTYLHWYLQKPGQSPQLLIYKVSNRFSGVPDRFSGSGSGTDFTLKISRVEAEDVGVYYCSQNTHVPPTFGQGTKVEIERTVAAPSVFIFPPSDEQLKSGTASVVCLLNNFYPREAKVQWKVDNALQSGNSQESVTEQDSKDSTYSLSSTLTLSKADYEKHKVYACEVTHQGLSSPVTKSFNRGEC
106 % of control | GpH7-A5/GpH7-B3 variant K326_15Y/GpL16-k0 (antibody, human IgG1, kappa, heterodimerized IgG1, mutation in one H chain; also called He Ab) heavy 1: not shown heavy 2: not shown light: DIVMTQSPLSLPVTPGEPASISCQASESLVHSNRNTYLHWYLQKPGQSPQLLIYKVSNRFSGVPDRFSGSGSGTDFTLKISRVEAEDVGVYYCSQNTHVPPTFGQGTKVEIERTVAAPSVFIFPPSDEQLKSGTASVVCLLNNFYPREAKVQWKVDNALQSGNSQESVTEQDSKDSTYSLSSTLTLSKADYEKHKVYACEVTHQGLSSPVTKSFNRGEC

From patent publication US20150344570A1 (published 2015)
